Experimental data published in paper PMC6753162, “The interactome of 2-Cys peroxiredoxins in Plasmodium falciparum” (Scientific Reports, 2019).

Assays:
[1] = target: the molecule itself; experiment: not stated; 6xHis-tagged Prx reduced with DTT, in purification buffer and in coupling buffer; method not given
recombinant PfSAHH wt = target: T1, recombinant PfSAHH wt (P. falciparum, UniProt P50250 1-479); experiment: pull-down; 2 mg reduced PfPrx1a wt on CNBr-activated Sepharose 4B; 8 mg purified recombinant PfLDH wt or PfSAHH wt (not pre-reduced); extensive washing; eluted with 10 mM DTT; silver-stained 12% SDS-PAGE; details: both partners purified
T1 construct: S-adenosyl-L-homocysteine hydrolase, Plasmodium falciparum, wild type; not pre-reduced in the assay; also called S-adenosyl-L-homocysteine hydrolase; source: recombinant, purified (produced as previously described)
T1 sequence (P50250 whole entry): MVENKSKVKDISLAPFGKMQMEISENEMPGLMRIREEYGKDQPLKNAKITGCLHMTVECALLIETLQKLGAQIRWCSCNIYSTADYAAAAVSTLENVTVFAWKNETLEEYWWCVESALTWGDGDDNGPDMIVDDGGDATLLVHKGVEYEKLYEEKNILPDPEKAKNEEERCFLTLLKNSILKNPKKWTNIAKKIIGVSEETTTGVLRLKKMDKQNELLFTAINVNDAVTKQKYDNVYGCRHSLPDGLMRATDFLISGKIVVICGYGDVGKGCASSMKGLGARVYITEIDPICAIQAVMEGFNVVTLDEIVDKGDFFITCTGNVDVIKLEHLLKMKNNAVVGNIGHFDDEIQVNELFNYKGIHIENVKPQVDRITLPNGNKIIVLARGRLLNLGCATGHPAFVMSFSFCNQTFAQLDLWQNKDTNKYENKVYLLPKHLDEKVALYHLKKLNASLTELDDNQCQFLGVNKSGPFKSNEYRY

B1: PfPrx1m wild type (enzyme, P. falciparum)
chain: SLVTKKAYNFTAQGLNKNNEIINVDLSSFIGQKYCCLLFYPLNYTFVCPTEIIEFNKHIKDFENKNVELLGISVDSVYSHLAWKNMPIEKGGIGNVEFTLVSDINKDISKNYNVLYDNSFALRGLFIIDKNGCVRHQTVNDLPIGRNVQEVLRTIDSIIHVDTSGEVCPINWKKGQKAFKPTTESLIDYMNNANKNV
notes: PfPrx1m (thioredoxin peroxidase 2), Plasmodium falciparum, mitochondrial; peroxidatic C67, resolving C187, further C54, C55, C152; also called PfPrx1m wt; thioredoxin peroxidase 2; source: E. coli M15 (pQE30), purified (Ni-NTA); not shown: His6, N-terminal, kept; copies: 10
In the case of B1, the “stoichiometry N” value [1] is reported as 10.

B2: PfPrx1a wild type (enzyme, P. falciparum, UniProt Q8IL80 1-195, looked up)
chain: MASYVGREAPYFKAEAVFADNTFGEVNLHDFIGKKYVLLYFYPLDFTFVCPSEIIALDKALDAFKERNVELIGCSVDSKYTHLAWKKTPLTKGGIGNIQHTLISDITKSISRSYNVLFGDSVSLRAFVLIDKQGVVQHLLVNNLAIGRSVEEVLRIIDAVQHHEQHGDVCPANWKKGKVAMKPSEEGVSEYLSKL
notes: PfPrx1a (thioredoxin peroxidase 1), Plasmodium falciparum; peroxidatic C50, resolving C170, further C74; also called PfPrx1a wt; thioredoxin peroxidase 1; source: E. coli M15 (pQE30), purified (Ni-NTA); not shown: His6, N-terminal, kept; copies: 10
In the case of B2, the binding result (recombinant PfSAHH wt) is reported as “binds” and the “stoichiometry N” value [1] is reported as 10.
